In assay [1] the target is T1, mouse ANGPTL3/8 complex (mouse, UniProt Q9R182 17-455; Q8R1L8 16-198, limits assumed).
T1 sequence (looked up) 1: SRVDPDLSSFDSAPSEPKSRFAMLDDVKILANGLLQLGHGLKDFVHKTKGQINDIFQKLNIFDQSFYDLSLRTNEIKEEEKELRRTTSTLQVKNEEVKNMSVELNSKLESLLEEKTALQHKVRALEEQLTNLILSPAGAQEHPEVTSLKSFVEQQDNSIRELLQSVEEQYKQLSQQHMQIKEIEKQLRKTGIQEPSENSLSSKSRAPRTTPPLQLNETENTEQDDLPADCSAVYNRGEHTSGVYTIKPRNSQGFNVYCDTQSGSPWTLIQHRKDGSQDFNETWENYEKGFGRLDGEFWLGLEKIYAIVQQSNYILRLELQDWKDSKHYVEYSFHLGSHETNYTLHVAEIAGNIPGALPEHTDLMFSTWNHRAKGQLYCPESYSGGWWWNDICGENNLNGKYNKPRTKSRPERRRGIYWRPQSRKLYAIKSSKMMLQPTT
T1 sequence (looked up) 2: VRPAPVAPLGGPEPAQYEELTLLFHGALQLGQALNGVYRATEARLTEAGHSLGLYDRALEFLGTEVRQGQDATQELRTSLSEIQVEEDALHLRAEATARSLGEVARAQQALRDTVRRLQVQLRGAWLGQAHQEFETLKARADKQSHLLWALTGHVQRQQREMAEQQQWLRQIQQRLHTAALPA
The experiment in a line: cell-based or functional assay.

In assay [2] the target is T2, cynomolgus ANGPTL3/8 complex (cynomolgus, UniProt A0A2K5UDC5 17-460; A0A2K5WWS3 22-198).
T2 sequence 1: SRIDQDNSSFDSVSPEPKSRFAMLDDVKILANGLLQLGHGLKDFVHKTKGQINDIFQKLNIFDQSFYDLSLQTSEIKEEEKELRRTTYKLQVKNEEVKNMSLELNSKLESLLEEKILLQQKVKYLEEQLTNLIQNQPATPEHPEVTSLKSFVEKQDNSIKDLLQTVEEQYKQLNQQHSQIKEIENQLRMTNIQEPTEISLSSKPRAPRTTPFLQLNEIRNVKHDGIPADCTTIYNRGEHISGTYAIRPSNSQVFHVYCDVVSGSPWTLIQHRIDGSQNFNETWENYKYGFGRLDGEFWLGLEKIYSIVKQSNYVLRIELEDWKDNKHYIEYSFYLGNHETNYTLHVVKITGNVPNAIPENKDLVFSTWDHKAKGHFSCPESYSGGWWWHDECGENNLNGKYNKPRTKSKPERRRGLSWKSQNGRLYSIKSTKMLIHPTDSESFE
T2 sequence 2: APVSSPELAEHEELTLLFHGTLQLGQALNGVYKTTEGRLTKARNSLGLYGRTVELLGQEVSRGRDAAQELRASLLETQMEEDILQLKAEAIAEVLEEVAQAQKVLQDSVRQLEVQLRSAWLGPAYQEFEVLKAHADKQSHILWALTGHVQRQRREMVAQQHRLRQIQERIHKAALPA
Nature of the assay: cell-based or functional assay.

The target in the next assay is rat ANGPTL3/8 complex (rat, UniProt F7FHP0 17-446). Nature of the assay: cell-based or functional assay.
Assay [3] addresses T3, human ANGPTL3/8 complex (human, UniProt Q9Y5C1 17-460; Q6UXH0 22-198, limits assumed).
T3 sequence 1: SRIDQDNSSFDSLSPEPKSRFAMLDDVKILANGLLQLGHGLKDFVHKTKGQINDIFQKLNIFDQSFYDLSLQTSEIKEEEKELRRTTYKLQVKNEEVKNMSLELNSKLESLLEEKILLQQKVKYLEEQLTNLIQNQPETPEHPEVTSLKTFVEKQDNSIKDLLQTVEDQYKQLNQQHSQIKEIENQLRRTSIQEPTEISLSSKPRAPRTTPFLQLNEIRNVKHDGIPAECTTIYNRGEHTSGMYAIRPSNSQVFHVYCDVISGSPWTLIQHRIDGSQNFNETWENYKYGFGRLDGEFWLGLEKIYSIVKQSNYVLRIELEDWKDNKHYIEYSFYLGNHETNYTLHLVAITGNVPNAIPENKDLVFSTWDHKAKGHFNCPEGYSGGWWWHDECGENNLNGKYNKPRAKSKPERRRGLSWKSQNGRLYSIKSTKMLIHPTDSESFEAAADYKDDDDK
T3 sequence 2: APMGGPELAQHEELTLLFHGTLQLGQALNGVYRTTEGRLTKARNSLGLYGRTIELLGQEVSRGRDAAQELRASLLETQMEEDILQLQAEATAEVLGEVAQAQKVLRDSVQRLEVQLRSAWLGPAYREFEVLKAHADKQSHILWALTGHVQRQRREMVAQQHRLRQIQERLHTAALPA
The experiment in a line: cell-based or functional assay.

Assay [4] deals with T1, mouse ANGPTL3/8 complex. The experiment in a line: SPR, Biacore T200; Ab captured on Human Fab Binder, complex injected; pH 7.4, 25 C.
In assay [5] the target is T1, mouse ANGPTL3/8 complex. The assay is described as above. This is another data set of the same source.
In assay [6] the target is T2, cynomolgus ANGPTL3/8 complex. The description is as above.
Assay [7] addresses T3, human ANGPTL3/8 complex. The description is as above.

Positions count from the first letter of the chain named. Names may count otherwise. Where two headings read alike, the source gives them in different places.

Sequence of rat ANGPTL3/8 complex (F7FHP0 entry or part of it, one chain of several): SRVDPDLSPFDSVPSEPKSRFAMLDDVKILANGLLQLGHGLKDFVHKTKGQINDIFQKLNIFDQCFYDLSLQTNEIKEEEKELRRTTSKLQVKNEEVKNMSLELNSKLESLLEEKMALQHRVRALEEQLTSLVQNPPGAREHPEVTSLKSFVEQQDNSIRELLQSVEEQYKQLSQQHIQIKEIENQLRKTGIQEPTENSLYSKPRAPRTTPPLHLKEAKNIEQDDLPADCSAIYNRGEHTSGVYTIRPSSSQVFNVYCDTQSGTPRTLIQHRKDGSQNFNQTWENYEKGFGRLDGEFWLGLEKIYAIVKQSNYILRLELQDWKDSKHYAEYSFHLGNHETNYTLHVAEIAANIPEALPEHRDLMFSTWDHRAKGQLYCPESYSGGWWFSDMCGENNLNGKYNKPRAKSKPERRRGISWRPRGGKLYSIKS

B1: anti-ANGPTL3/8 complex Ab having a LC of SEQ ID NO:5 and a HC of SEQ ID NO:6 (antibody, human IgG4 S228P, kappa, F234A L235A, V domains shown)
VH: QVTLKESGPTLVKPTQTLTLTCTFSGFSLSISGVGVGWIRQPPGKALEWLALIYRNDDKRYSPSLKSRLTITKDTSKNQVVLTLTNMDPVDTATYYCARTYSSGWYGNWFDPWGQGTLVTVSS
VL: DIVMTQTPLSLPVTPGEPASISCRSSQSLLDSDDGNTYLDWYLQKPGQSPQLLIYMLSYRASGVPDRFSGSGSGTDFTLKISRVEAEDVGIYYCMQRIEFPLTFGGGTKVEIKR
notes: In the ELISA assays tested as IgG from CHO supernatants; also called the Ab
Consider B1, for which, in the assay with mouse ANGPTL3/8 complex [1], the “% Max Derepression of LPL” value was found to be 103% and the “Ab EC50 (nM), derepression of LPL” value worked out at 1.38 nM. Further, in assay [2], the “% Max Derepression of LPL” value stood at 96% and the “Ab EC50 (nM), derepression of LPL” value was determined as 1.31 nM. Further, in the assay with rat ANGPTL3/8 complex, the “% Max Derepression of LPL” value was found to be 105% and the “Ab EC50 (nM), derepression of LPL” value was 2.77 nM. Further, in the assay with human ANGPTL3/8 complex [3], the “% Max Derepression of LPL” value was 102% and the “Ab EC50 (nM), derepression of LPL” value is 0.28 nM. In the assay with mouse ANGPTL3/8 complex [4], the affinity, expressed as Kd, was 0.366 nM; the koff was determined as 0.000172 s⁻¹; the kon came out at 475000 M⁻¹ s⁻¹.

B2: Ab with LC variant having a D33A mutation (SEQ ID NO:22) and a HC of SEQ ID NO:6 (antibody, human IgG4 S228P, kappa, F234A L235A, V domains shown)
VH: B1 VH
VL: B1 VL with D33A
notes: also called D33A Variant Ab; D33A Ab
For the molecule B2, in the assay with mouse ANGPTL3/8 complex [5], the Kd turned out to be 0.68 nM, the koff stood at 0.000347 s⁻¹ and the association rate constant (kon) was 515000 M⁻¹ s⁻¹. In assay [6], this molecule came in with an equilibrium dissociation constant (Kd) of 0.609 nM, a koff of 0.000265 s⁻¹ and an on-rate constant (kon) of 435000 M⁻¹ s⁻¹. In the assay with human ANGPTL3/8 complex [7], this molecule registered a dissociation constant (Kd) of 0.201 nM, a koff of 9.19e-05 s⁻¹ and an on-rate (kon) of 457000 M⁻¹ s⁻¹.

Source of the values: patent US20200199213A1 (Eli Lilly, published 2020).
